According to paper PMC4496087:

B1: Chemokine (C-C motif) ligand 5 (CCL5), unlabelled, P13501 24-91 (ligand)
chain: SPYSSDTTPCCFAYIARPLPRAHIKEYFYTSGKCSNPAVVFVTRKNRQVCANPEKKWVREYINSLEMS

Experiments:
[1] = molecular target: Wild type CCR5, endogenous on human monocyte-derived macrophages (human (endogenous in monocyte-derived macrophages)) (UniProt P51681)
[2] = molecular target: Wild type CCR5, endogenous on human monocyte-derived macrophages (human (endogenous in monocyte-derived macrophages)), P51681; assay: radioligand binding; competition: human macrophages (membranes) pretreated with different amounts of CCR5-T4L or CCL5, or CCL5 plus CCR5-T4L; specific binding of 0.3 nmol/L [125I]-CCL5, 2 h at 37°C, unbound ligand removed through a 10% sucrose/PBS cushion, gamma counting; conditions: remark: other sources report otherwise

Molecule	[35S]GTPγS binding to membranes of human MDM (G-protein activation), EC50 [1] [nM]	EC50 [2] [nM]
Soluble recombinant CCR5-T4L protein (receptor)	5460	
B1		0.046
